The results in this text go back to patent publication US20250012810A1 (NORDIC BIOSCIENCE A S, published 2025).

This test concerns the target T1, elongated peptide GPPGPPGRLVD (human).
T1 construct: The range follows from the stated cleavage site V1709-D1710 and the peptide length
T1 peptide: GPPGPPGRLVD
As to the kind of experiment: competitive ELISA on biotin-… coated streptavidin plates. The procedure:
A competitive ELISA using the monoclonal antibody raised against C7 was performed using the following procedure:
Streptavidin-coated plates were coated with 100 μL/well of 2.5 ng/mL biotin-labeled peptide (Biotin-[…], SEQ ID NO: 10) diluted in assay buffer (50 mM TBS-BTB, 2 g/L NaCl, pH 8.0) and incubated at 20° C., 300 rpm shaking for 30 minutes. Plates were washed five times in washing buffer ([…] TRIS, 50 mM NaCl, pH 7.2). Sample or standard peptide (20 μL) was added in double determinations and followed immediately by addition of 100 μL/well of 200 ng/mL HRP-labeled monoclonal antibody diluted in assay buffer and plates were incubated at 20° C., 300 rpm shaking for 3 hours. The standard peptide was a synthetic peptide ([…], SEQ ID NO: 1) with a starting concentration of 125 ng/ml and diluted 2-fold to create an 11 points calibration curve (FIG. 1). After incubation, plates were washed five times in washing buffer. A volume of 100 μL 3,3′, 5,5′-tetramethylbenzidine (TMB) was added and incubated for 15 min at 20° C. in the dark. To stop the enzyme reaction of TMB, […] 0.1% sulphuric acid was added and the absorbance was measured at 450 nm with 650 nm as the reference using an ELISA reader. A calibration curve was plotted using a 4-parametric mathematical fit model. […] All samples were measured within the range of the assay. […]
(ELISA stands for enzyme-linked immunosorbent assay.)

B1: monoclonal antibody raised against the C-terminal neo-epitope amino acid sequence …-COOH (C7) (antibody, mouse IgG1, kappa, V domains shown)
VH: EVQLQQSGPELVKPGASVKISCKTSGYTFIENTMNWVKQSHGKSLEWIGGINPKIGGSIYNQKFQDKATLTVDKSSSTAYMELRSLTSDDSAVYYCARGIYDEGWHFDVWGAGTTVTVSS
VL: DIVMTQAAFSNPVTLGTSASISCRSSQSLLYSNGITYLYWYLQKPGQSPQLLIYQMSNLASGVPDRFSSSGSGTDFTLRISRVEAEDVGVYYCAQNLELPWTFGGGTKLEIKR
notes: also called monoclonal antibody raised against C7; HRP-labeled monoclonal antibody
As to B1, the binding result is “no binding”.
